We go through 41 sequences from the nanobody polyreactivity screen of Harvey et al. (2022).

The data set can be described thus: yeast display, Sf9 membrane polyspecificity reagent, FACS + sequencing; frameworks hold sequencing errors. Summed up: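 A nanobody's polyreactivity label depends on the gate it was sorted from. Yeast display cells were stained with 10% biotinylated, detergent-solubilized Sf9 membrane reagent for 1 hour at 4 °C, enriched on streptavidin microbeads and sorted by FACS. The low and high (top ~1%) gates were set on anti-HA fluorescence for expression and streptavidin fluorescence for reagent binding.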
As for “QVQLVESGGGLVQAGGSLRLSCAASVFIFGLYVMGWYRQAPGKERELVAAITFNGGSTYADSVKGRFTISRDNAKNTVYLQMNSLKPEDTAVYYCNAGRAVYRYWYKYVYWGQGTQVTVSS”, the “polyreactivity (PSR sort gate)” value is on record as “high polyreactivity”.

Consider “QVQLVESGGGLVQAGGSLRLSCAASVFLPYTMGWYRQAPGKERELVAAITRGGSTYYADSVKGRFTISRDNAKNTVYLQMNSLKPEDTAVYYCAKRSTFAWRGYDYWGQGTQVTVSS”, for which the “polyreactivity (PSR sort gate)” value is reported as “high polyreactivity”. As to “QVQLVESGGGLVQAGGSLRLSCAASVFTFISYAMGRYRQAPGKEREFVAAITRGGGSTYYADSVKGRFTISRDNAKNTVYLQMNSLKPEDTAVYYCAADPQSTIRDYWGQGTQVTVSS”, the “polyreactivity (PSR sort gate)” value was “high polyreactivity”. For “QVQLVESGGGLVQAGGSLRLSCAASVFTFKINGMGWYRQAPGKEREFVATIRTSTGRTYYADSVKGRFTISRDNAKNTVYLQMNSLKPEDTAVYYCDTRVRQGNTHPNGKSDDYWGQGTQVTVSS”, the “polyreactivity (PSR sort gate)” value is given as “high polyreactivity”.

Regarding “QVQLVESGGGLVQAGGSLRLSCAASVFTFVRYSMGWYRQAPGKERELVAAISSGGRTYYADSVKGRFTISRDNAKYTVYLQMNSLKPEDTAVYYCAADTKFGYGYWGQGTQVNVSS”, the “polyreactivity (PSR sort gate)” value is given as “high polyreactivity”.

Consider “QVQLVESGGGLVQAGGSLRLSCAASVIIISYYAIGWYRQAPGKERELVAAITRGGGRTYYADSVKGRFTISRDNAKNTVYLQMNSLKPEDTAVYYCKALSRYVENDYWGQGTQVTVSS”, for which the “polyreactivity (PSR sort gate)” value is “high polyreactivity”.

As to “QVQLVESGGGLVQAGGSLRLSCAASVRIFAKYAMGWYRQAPGKERELVAAITSGGRTYYADSVKGRFTISRDNAKNTVYLPMNSLKPEDTAVYYCNAVPKSRDWQSYGSWGQGTQVTVSS”, the “polyreactivity (PSR sort gate)” value was “high polyreactivity”. For the sequence “QVQLVESGGGLVQAGGSLRLSCAASVRIFGSNVMGWYRQAPGKERELVASISSGGTTYYADSVKGRFTISRDNAKYTVYLQMNSLKPEDTAVYYCAKQWTRIYQYRWYPGTRTGYDYWGQGTQVTVSS”, the “polyreactivity (PSR sort gate)” value was “high polyreactivity”. As for “QVQLVESGGGLVQAGGSLRLSCAASVRIFVYNTMGWYRQAPGKERELVAAINYSGGSTYYADSVKGRFTISRDNAKNTVYLQMNSLKPEDTAVYYCAVKLRSRAGTSYGYWGQGTQVTVSS”, the “polyreactivity (PSR sort gate)” value is given as “high polyreactivity”. Under “QVQLVESGGGLVQAGGSLRLSCAASVRSFRWYTMGWYRQAPGKERELVATISWRGGSTSYADSVKGRFTISRDNAKNTVYLQMNSLKPEDNAVYYCNAVYLWWAYDYWGQGTQVTVSS” stands “high polyreactivity”; under “QVQLVESGGGLVQAGGSLRLSCAASVRTFKWYAMGWYRQAPGKERELVAGISRGAGRTYYADSVKWRFTMSRDNAKNTVYLQMNSLKPEDTAVYYCAAVPSYHSTSPFYYWGQGTQVTVSS”, “high polyreactivity”. “QVQLVESGGGLVQAGGSLRLSCAASVRTFKYYAMGWYRQAPGKERELVAAISWSGSSTYYADSVKGRFTISRDNAKNTVDLPMNSLKPEDPAVYYCAAATYRQFTGTYDYWGQGTQVTVSS”: the “polyreactivity (PSR sort gate)” value is “high polyreactivity”. Take “QVQLVESGGGLVQAGGSLRLSCAASVRTFRIYAMGWYRQAPGKERELVAAISWDDGSTYYADSVKGRFTISRDNAKNTVYLQMNSLKPEDTAVYYCAAEYYFVNRGAWYDYWGQGTQVTVSS”: the “polyreactivity (PSR sort gate)” value is “high polyreactivity”. Under “QVQLVESGGGLVQAGGSLRLSCAASVRTFVVYAMGWYRQAPGKEREMVAVISFTGDSTFYADSVKGRFTISRDNAKNTVYLQMNSLKPEDTAVYYCNAGPYTYLHWNQAISRYYYWGQGTQVTVSS” stands “low polyreactivity”; under “QVQLVESGGGLVQAGGSLRLSCAASVRTSGRYAMGWYRQAPGKERELVAAISWSGGSTYYADSVQGRFTSSRDNAKNTVYLQMNSLKPEDTAVYYCNAQHALGYYYWGQGTQVTVSS”, “low polyreactivity”. In the case of “QVQLVESGGGLVQAGGSLRLSCAASVSIFATNAKGWYRQAPGKERELVASISSGGGSTYYADSVKGRFTISRDNEKNTVYLQMNSLKPEDTAVYYFARRIGHGSRPYWLETWRYPYDYWGQGTQLTVSS”, the “polyreactivity (PSR sort gate)” value is “low polyreactivity”. Take “QVQLVESGGGLVQAGGSLRLSCAASVSIFAYYAMGLYRQAPGKERELVAAISRGGDTNYADSVKGRFTISRDNAKNTVYLQMNSLKPEDTAVSYCAATSYVRGYWYGYWGQGSQVTVSS”: the “polyreactivity (PSR sort gate)” value is on record as “high polyreactivity”.

In the case of “QVQLVESGGGLVQAGGSLRLSCAASVSIFGPYAKGWYRQAPGKERDLDAAISRGSRTNYADSVKGLFTISRDNEKNTVYLQMNSLKPEDTAVYYCAARYVWRSTHHRGSTYDYWRQGTQVTVSS”, the “polyreactivity (PSR sort gate)” value is given as “high polyreactivity”.

“QVQLVESGGGLVQAGGSLRLSCAASVSIFSSYAMGWYRQAPGKERELVAAISSSGDSTDADSVKGRFTISRDNAKNTVYLQMNSLKPEDTAVYYCAVGGAGSDDYWGHGTQVTVSS”: the “polyreactivity (PSR sort gate)” value was “low polyreactivity”. As for “QVQLVESGGGLVQAGGSLRLSCAASVSIFYPYAMGWYRQAPGKERELVAAIRWSGGRTYYADSVKGRFTISRDNAKNTVYLQMNSLKPEDTAVYYCAADGQVSGYDYWGQGTQVTVSS”, the “polyreactivity (PSR sort gate)” value is given as “high polyreactivity”.

Take “QVQLVESGGGLVQAGGSLRLSCAASVSIIACYTMGWYRQATGTERELVAGIRRGGSTNYADSVKGRVTISRDNAKNTVYLQMNSLKPEDTAVYYCNAQRTRSYVLRTFDYWGQGTQVTVSS”: the “polyreactivity (PSR sort gate)” value is on record as “high polyreactivity”.

As for “QVQLVESGGGLVQAGGSLRLSCAASVSIILDNAMGWYRQAPGKERELVASIDWSGGSTDYADSVKGRFTISRDNAKNTVYLQMNSLKPEDTAVYYCNAERYPYRLRARKLDYWGQGTQVTVSS”, the “polyreactivity (PSR sort gate)” value was “low polyreactivity”. For the sequence “QVQLVESGGGLVQAGGSLRLSCAASVSTFALYVMGWYRQAPGKERELVAAITDSSSTYYADSVKGRFTISRDNAKNTVYLQMNSLKPEDTAVYYCAARGRLIYAITYRNSPVYYWGQGTQVTVSS”, the “polyreactivity (PSR sort gate)” value is reported as “low polyreactivity”.

Consider “QVQLVESGGGLVQAGGSLRLSCAASVSTFDYYTMGRYRQAPGKERELVAAISSAGSTNYADSVKGRFTISRDNAKNTVYLQMNSLKPEDTAVYYCAAQVHPIRYDYWGQGTQVTVSS”, for which the “polyreactivity (PSR sort gate)” value is recorded as “low polyreactivity”. With “QVQLVESGGGLVQAGGSLRLSCAASVSTFFRNAMGWYRQAPGKERELVAAISKSGTSTYYADSVKGRFTISRDNAKNTVYLQMNSLKPEDTAVYYCAKYGFSYPQSYAYYYWGQGTQVTVSS”, the “polyreactivity (PSR sort gate)” value is recorded as “high polyreactivity”.

In the case of “QVQLVESGGGLVQAGGSLRLSCAASVSTFGGYAMGWYRQAPGKERELDAAITYSGGSTYYADSVKGRFTISRDNAKNTVYLQMNSLKPEDTAVYYCNADDDDALPWWWPYVLDVDYWGQGTQVTVSS”, the “polyreactivity (PSR sort gate)” value is recorded as “low polyreactivity”. Turning to “QVQLVESGGGLVQAGGSLRLSCAASVSTFRNYAMGWYRQAPGKERELVAAISGSGVRTYYADSVKGRFTISRDNAKNTVYLQMNSLKPEDTAVYYCAARGQGGPYNYWGQGTQVTVSS”, the “polyreactivity (PSR sort gate)” value is “high polyreactivity”.

In the case of “QVQLVESGGGLVQAGGSLRLSCAASVSTFVLYAMGWYRQAPGKERELVAVISWSGGSTYYADSVKGRFTISRDNAKNTVYLQMNSLKPEDTAVYYCAADSTWEGGYKYEYWGQGTQVTVSS”, the “polyreactivity (PSR sort gate)” value was “low polyreactivity”. Under “QVQLVESGGGLVQAGGSLRLSCAASVSTFYRYTMVWYRQAPGKERELVAAITYRGGTTYYADSVKGRFTISRDNAKNTVYLQMNSLKPEDTAVYYCAAYSSLGYIMNYWGQGTQVTVSS” stands “high polyreactivity”; under “QVQLVESGGGLVQAGGSLRLSCAASVSTIGYYAMGWYRQAPGKEWELVAAITWSGDSTYADSVKGRFTISRDNAKNTVYLQMNRLKPEDTAVYYCARRGFLGHWPRPSYDYWGQGTQVTVSS”, “low polyreactivity”; under “QVQLVESGGGLVQAGGSLRLSCAASVYIFVPYTLGWYRQAPGKERELVAAITRSGGSTYYADSVKGRFTISRDNAKNTVSLQMNSLKPEDTAVYYCATVGGPRWVRAQYDYWGQGTQVTVSS”, “high polyreactivity”. The same measure for “QVQLVESGGGLVQAGGSLRLSCAASVYTFSKNTMGWYRQAPGKEREFVAAINWSGGSTYYADSVKGRFTISRDNAKNTVYLQMNSLKPEDTAVYYFAARRGGRRGYDYWGQGTQVTVSS”: “high polyreactivity”. Take “QVQLVESGGGLVQAGGSLRLSCAATGFIFPYYAMGLYRQAPGKEREMVAAITFSATRTYYADSVKGRFTISRDNAKNTVYLQMNSLKPEDTAVYYCNARGGVYGSYFEFNYWGQGTQVTVSS”: the “polyreactivity (PSR sort gate)” value is listed as “low polyreactivity”. For the sequence “QVQLVESGGGLVQAGGSLRLSCAATGFRFVHTAIGWYRKAPGKERELVAAIRSRGGSTYYADSVKGRFTISRDNAKNTVYLQMKSLKPEDTAVYYCAADGAVDSSSRKFGYWGQGTQVNVSS”, the “polyreactivity (PSR sort gate)” value is “low polyreactivity”. As for “QVQLVESGGGLVQAGGSLRLSCAATGFTFGWNDMGWYRQARGKEMELVAAISGGGGSTYYADSVKGRFTISRDNAKNTVYLQMNSLKPEDTAVYYCATDSGTLIVKYDYWGQGTQVTVSS”, the “polyreactivity (PSR sort gate)” value is “low polyreactivity”. On to “QVQLVESGGGLVQAGGSLRLSCAATGFTFRYNAMGWYRQAPGKERELGAAISIGGTTNYADSVKGRFTISRDNAKNTVYLQMNSLKPEDTAVYYCNALGTYFRRYDYWGQGTQVTVSS”, for which the “polyreactivity (PSR sort gate)” value was “low polyreactivity”. “QVQLVESGGGLVQAGGSLRLSCAATGFTFSLYGMGWYRQAPGKERELVAAIRSGGSTNYADSVKGRFTISRDNAKNTVYLQMNSLKPVDTAVYYCATDIHSVHNNRDKHDYDYWGQGTQVTVSS”: the “polyreactivity (PSR sort gate)” value is “low polyreactivity”. Under “QVQLVESGGGLVQAGGSLRLSCAATGFTFSYYALGWYRQAPGKERELVAVISDRGGITYYADSVKGRFTISRDNAKNTVYLQMNSLKPEDTADYYCAAQNPRYNYRYYYWGHGTQVTVSS” stands “low polyreactivity”; under “QVQLVESGGGLVQAGGSLRLSCAATGLTIWHYVMGWYRQAPGKERELVATISSSGGSTFYADSVKGRFTISRDNAKNTVYLQMNSLKPEDTAVYYCNADQYSWRWRRKHDYWGQGTQVTVSS”, “high polyreactivity”; under “QVQLVESGGGLVQAGGSLRLSCAATGRIFGRNAMGWYRQAPGKERELVAAINSGVSTYYADSVKGRFTISRDNAKNTVYLQMNSLKPQDTAVYYCANAPPRRYYDFDYWGQGTQVTVSS”, “low polyreactivity”. As for “QVQLVESGGGLVQAGGSLRLSCAATGRIVTSNAMGWYRQAPGKERELVAVISRRGGSTYYADSVKGRFTISRDNAKNTVYLQMNRLKPEETAVYYCARRPYSYTRYEYWGQGTQVTVSS”, the “polyreactivity (PSR sort gate)” value was “low polyreactivity”.
